# Results taken from patent US20230287458, “RECOMBINANT ADENO-ASSOCIATED VIRAL […] FOR […] GENE […]” (Abeona Therapeutics Inc., published 2023).
# B1: Lox66 (dsDNA)
# DNA 1: ATAACTTCGTATAATGTATGCTATACGAACGGTA
# DNA 2: TACCGTTCGTATAGCATACATTATACGAAGTTAT
# Molecular target: Cre recombinase (UniProt P06956 P06956:1-343)
# Assay: cell_activity; Lox66 partner site of Lox71 in same experiment; full-length ABCA4 mRNA relative to the pair without Cre
# Conditions: tags: NLS; expressed from the 5' ABCA4 vector after T2A self-cleavage; chain copies: 4
# From the text: We quantified the expression levels of full-length ABCA4 mRNA in cells transfected with various plasmids.
# Sequence of Cre recombinase (P06956 whole entry, one chain of several): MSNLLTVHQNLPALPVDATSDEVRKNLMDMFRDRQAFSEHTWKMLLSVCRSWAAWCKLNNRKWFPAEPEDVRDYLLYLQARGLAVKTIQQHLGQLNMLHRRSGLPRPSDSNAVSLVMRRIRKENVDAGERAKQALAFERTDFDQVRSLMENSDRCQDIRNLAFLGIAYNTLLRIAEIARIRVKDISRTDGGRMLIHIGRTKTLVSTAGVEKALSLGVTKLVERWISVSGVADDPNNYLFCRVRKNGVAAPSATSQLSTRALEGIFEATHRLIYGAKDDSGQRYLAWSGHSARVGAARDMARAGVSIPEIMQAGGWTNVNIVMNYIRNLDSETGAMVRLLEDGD
binder,measurement,value
B1,activity,~55 fold
